System: Escherichia coli TOP10
Assay: shrunken log2 fold change of peptide-encoding DNA abundance (4.5 h post-induction vs induction); higher = less antimicrobial activity (less host growth inhibition)
Details: time post-induction: 4.5 h; library: site-saturation at positions 5, 18, 19, 20
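Further: peptides expressed intracellularly from a pBAD plasmid library in pooled LB shake-flask culture, induced with 0.3% L-arabinose, DNA abundance read by NGS, three biological replicates, DESeq2 with apeglm shrinkage.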

Row | Sequence | shrunken log2 fold change
1 | RRIRKRPPRLPRPRPRPTKKPRP | 0.0465
2 | RRIRKRPPRLPRPRPRPTKWPRP | 0.172
3 | RRIRKRPPRLPRPRPRPTMDPRP | 0.0288
4 | RRIRKRPPRLPRPRPRPTQCPRP | 0.567
5 | RRIRKRPPRLPRPRPRPTQSPRP | 0.441
6 | RRIRKRPPRLPRPRPRPTRQPRP | 0.724
7 | RRIRKRPPRLPRPRPRPTSIPRP | 0.208
8 | RRIRKRPPRLPRPRPRPTTRPRP | 0.717
9 | RRIRKRPPRLPRPRPRPTVIPRP | -0.15
10 | RRIRKRPPRLPRPRPRPTVYPRP | -0.0794
11 | RRIRKRPPRLPRPRPRPVEWPRP | 0.12
12 | RRIRKRPPRLPRPRPRPVFEPRP | 0.347
13 | RRIRKRPPRLPRPRPRPVFIPRP | -0.0138
14 | RRIRKRPPRLPRPRPRPVGSPRP | 0.178
15 | RRIRKRPPRLPRPRPRPVHAPRP | 0.464
16 | RRIRKRPPRLPRPRPRPVIRPRP | 0.0302
17 | RRIRKRPPRLPRPRPRPVLGPRP | 0.977
18 | RRIRKRPPRLPRPRPRPVMCPRP | 0.0989
19 | RRIRKRPPRLPRPRPRPVNHPRP | -0.0443
20 | RRIRKRPPRLPRPRPRPVQHPRP | 0.134
21 | RRIRKRPPRLPRPRPRPVQNPRP | 0.49
22 | RRIRKRPPRLPRPRPRPVREPRP | 0.817
23 | RRIRKRPPRLPRPRPRPVSFPRP | -0.0599
24 | RRIRKRPPRLPRPRPRPVSPPRP | 0.286
25 | RRIRKRPPRLPRPRPRPVSVPRP | -0.0496

Row | Sequence | shrunken log2 fold change
26 | RRIRKRPPRLPRPRPRPVTFPRP | -0.126
27 | RRIRKRPPRLPRPRPRPVVHPRP | 0.122
28 | RRIRKRPPRLPRPRPRPVYGPRP | -0.0742
29 | RRIRKRPPRLPRPRPRPWCCPRP | -0.187
30 | RRIRKRPPRLPRPRPRPWCYPRP | -0.168
31 | RRIRKRPPRLPRPRPRPWFPPRP | -0.0488
32 | RRIRKRPPRLPRPRPRPWGQPRP | 0.0379
33 | RRIRKRPPRLPRPRPRPWHKPRP | -0.145
34 | RRIRKRPPRLPRPRPRPWHMPRP | -0.00936
35 | RRIRKRPPRLPRPRPRPWIEPRP | 0.00935
36 | RRIRKRPPRLPRPRPRPWIHPRP | -0.145
37 | RRIRKRPPRLPRPRPRPWITPRP | -0.105
38 | RRIRKRPPRLPRPRPRPWNLPRP | -0.109
39 | RRIRKRPPRLPRPRPRPWPDPRP | 0.238
40 | RRIRKRPPRLPRPRPRPWPIPRP | 0.891
41 | RRIRKRPPRLPRPRPRPWPYPRP | -0.146
42 | RRIRKRPPRLPRPRPRPWRIPRP | 0.0387
43 | RRIRKRPPRLPRPRPRPWRPPRP | 0.177
44 | RRIRKRPPRLPRPRPRPWSWPRP | 0.00624
45 | RRIRKRPPRLPRPRPRPWVIPRP | -0.182
46 | RRIRKRPPRLPRPRPRPWWNPRP | 0.0316
47 | RRIRKRPPRLPRPRPRPWYRPRP | 0.0232
48 | RRIRKRPPRLPRPRPRPYALPRP | -0.119
49 | RRIRKRPPRLPRPRPRPYAVPRP | 0.916
50 | RRIRKRPPRLPRPRPRPYDFPRP | 0.176

Row | Sequence | shrunken log2 fold change
51 | RRIRKRPPRLPRPRPRPYECPRP | -0.341
52 | RRIRKRPPRLPRPRPRPYEEPRP | -0.0817
53 | RRIRKRPPRLPRPRPRPYELPRP | -0.0181
54 | RRIRKRPPRLPRPRPRPYGAPRP | 0.00792
55 | RRIRKRPPRLPRPRPRPYGWPRP | 0.05
56 | RRIRKRPPRLPRPRPRPYHCPRP | -0.0129
57 | RRIRKRPPRLPRPRPRPYHQPRP | -0.231
58 | RRIRKRPPRLPRPRPRPYICPRP | 0.0572
59 | RRIRKRPPRLPRPRPRPYINPRP | -0.627
60 | RRIRKRPPRLPRPRPRPYIRPRP | -0.018
61 | RRIRKRPPRLPRPRPRPYIVPRP | -0.404
62 | RRIRKRPPRLPRPRPRPYLDPRP | -0.0998
63 | RRIRKRPPRLPRPRPRPYMIPRP | -0.415
64 | RRIRKRPPRLPRPRPRPYNEPRP | -0.254
65 | RRIRKRPPRLPRPRPRPYNFPRP | -0.384
66 | RRIRKRPPRLPRPRPRPYPNPRP | 0.0382
67 | RRIRKRPPRLPRPRPRPYRQPRP | -0.122
68 | RRIRKRPPRLPRPRPRPYSQPRP | 0.0349
69 | RRIRKRPPRLPRPRPRPYSYPRP | -0.0565
70 | RRIRKRPPRLPRPRPRPYTMPRP | -0.53
71 | RRIRKRPPRLPRPRPRPYTNPRP | -0.21
72 | RRIRKRPPRLPRPRPRPYVQPRP | -0.332
73 | RRIRKRPPRLPRPRPRPYVVPRP | -0.226
74 | RRIRKRPPRLPRPRPRPYWCPRP | -0.485
75 | RRIRKRPPRLPRPRPRPYYEPRP | -0.493

Row | Sequence | shrunken log2 fold change
76 | RRIRKRPPRLPRPRPRPYYFPRP | -0.234
77 | RRIRLRPPRLPRPRPRPAAGPRP | 0.312
78 | RRIRLRPPRLPRPRPRPAAYPRP | -0.15
79 | RRIRLRPPRLPRPRPRPACGPRP | 0.412
80 | RRIRLRPPRLPRPRPRPADSPRP | -0.182
81 | RRIRLRPPRLPRPRPRPADTPRP | -0.538
82 | RRIRLRPPRLPRPRPRPAEEPRP | 0.133
83 | RRIRLRPPRLPRPRPRPAFLPRP | 0.134
84 | RRIRLRPPRLPRPRPRPAGSPRP | 0.268
85 | RRIRLRPPRLPRPRPRPAHAPRP | 0.195
86 | RRIRLRPPRLPRPRPRPAHIPRP | 0.0196
87 | RRIRLRPPRLPRPRPRPAHNPRP | 0.255
88 | RRIRLRPPRLPRPRPRPAIEPRP | 0.0744
89 | RRIRLRPPRLPRPRPRPAIFPRP | -0.391
90 | RRIRLRPPRLPRPRPRPAIIPRP | -0.197
91 | RRIRLRPPRLPRPRPRPAILPRP | 0.0331
92 | RRIRLRPPRLPRPRPRPAKCPRP | -0.0859
93 | RRIRLRPPRLPRPRPRPAKRPRP | 0.0374
94 | RRIRLRPPRLPRPRPRPAKSPRP | -0.0164
95 | RRIRLRPPRLPRPRPRPALPPRP | 0.128
96 | RRIRLRPPRLPRPRPRPANSPRP | -0.202
97 | RRIRLRPPRLPRPRPRPAPFPRP | -0.0923
98 | RRIRLRPPRLPRPRPRPAQYPRP | -0.0702
99 | RRIRLRPPRLPRPRPRPARCPRP | 0.651
100 | RRIRLRPPRLPRPRPRPARKPRP | 0.0589

Row | Sequence | shrunken log2 fold change
101 | RRIRLRPPRLPRPRPRPASFPRP | -0.0339
102 | RRIRLRPPRLPRPRPRPASLPRP | 0.105
103 | RRIRLRPPRLPRPRPRPATTPRP | 0.467
104 | RRIRLRPPRLPRPRPRPATWPRP | -0.125
105 | RRIRLRPPRLPRPRPRPAVHPRP | -0.149
106 | RRIRLRPPRLPRPRPRPAVNPRP | -0.0174
107 | RRIRLRPPRLPRPRPRPAVWPRP | 0.72
108 | RRIRLRPPRLPRPRPRPAYMPRP | -0.275
109 | RRIRLRPPRLPRPRPRPAYWPRP | 0.154
110 | RRIRLRPPRLPRPRPRPCCDPRP | -0.139
111 | RRIRLRPPRLPRPRPRPCEEPRP | -0.0266
112 | RRIRLRPPRLPRPRPRPCELPRP | -0.358
113 | RRIRLRPPRLPRPRPRPCEYPRP | 0.0103
114 | RRIRLRPPRLPRPRPRPCGWPRP | 0.124
115 | RRIRLRPPRLPRPRPRPCHNPRP | 0.0575
116 | RRIRLRPPRLPRPRPRPCIDPRP | -0.166
117 | RRIRLRPPRLPRPRPRPCLMPRP | -0.266
118 | RRIRLRPPRLPRPRPRPCMAPRP | -0.311
119 | RRIRLRPPRLPRPRPRPCMMPRP | -0.225
120 | RRIRLRPPRLPRPRPRPCNCPRP | 0.045
121 | RRIRLRPPRLPRPRPRPCNIPRP | -0.00101
122 | RRIRLRPPRLPRPRPRPCPLPRP | -0.333
123 | RRIRLRPPRLPRPRPRPCPSPRP | -0.00306
124 | RRIRLRPPRLPRPRPRPCRIPRP | -0.0656
125 | RRIRLRPPRLPRPRPRPCRSPRP | -0.0599

Row | Sequence | shrunken log2 fold change
126 | RRIRLRPPRLPRPRPRPCSIPRP | -0.678
127 | RRIRLRPPRLPRPRPRPCSVPRP | -0.0962
128 | RRIRLRPPRLPRPRPRPCTTPRP | 0.0144
129 | RRIRLRPPRLPRPRPRPCVEPRP | -0.124
130 | RRIRLRPPRLPRPRPRPCVNPRP | -0.00681
131 | RRIRLRPPRLPRPRPRPCWTPRP | -0.252
132 | RRIRLRPPRLPRPRPRPCWWPRP | 0.26
133 | RRIRLRPPRLPRPRPRPDCRPRP | 0.0593
134 | RRIRLRPPRLPRPRPRPDDCPRP | 0.014
135 | RRIRLRPPRLPRPRPRPDEIPRP | -0.0542
136 | RRIRLRPPRLPRPRPRPDFGPRP | 0.153
137 | RRIRLRPPRLPRPRPRPDFIPRP | -0.295
138 | RRIRLRPPRLPRPRPRPDGLPRP | -0.115
139 | RRIRLRPPRLPRPRPRPDGWPRP | 0.257
140 | RRIRLRPPRLPRPRPRPDGYPRP | 0.0385
141 | RRIRLRPPRLPRPRPRPDHHPRP | -0.769
142 | RRIRLRPPRLPRPRPRPDIFPRP | -0.282
143 | RRIRLRPPRLPRPRPRPDINPRP | -0.665
144 | RRIRLRPPRLPRPRPRPDIRPRP | -0.15
145 | RRIRLRPPRLPRPRPRPDKQPRP | -6.78e-05
146 | RRIRLRPPRLPRPRPRPDLDPRP | -0.0167
147 | RRIRLRPPRLPRPRPRPDLHPRP | -0.0386
148 | RRIRLRPPRLPRPRPRPDLRPRP | -0.0717
149 | RRIRLRPPRLPRPRPRPDMLPRP | -0.125
150 | RRIRLRPPRLPRPRPRPDMTPRP | -0.0167
